The results in this text go back to the supplement of paper PMC9112550, “Optimization of the antimicrobial peptide Bac7 by deep mutational scanning” (BMC Biology, 2022).

This data set relates to Escherichia coli TOP10. Kind of data set: shrunken log2 fold change of peptide-encoding DNA abundance (4.5 h post-induction vs induction); higher = less antimicrobial activity (less host growth inhibition). Conditions: time post-induction: 4.5 h; library: site-saturation at positions 5, 18, 19, 20.
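Further: peptides expressed intracellularly from a pBAD plasmid library in pooled LB shake-flask culture, induced with 0.3% L-arabinose, DNA abundance read by NGS, three biological replicates, DESeq2 with apeglm shrinkage.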

Regarding RRIRDRPPRLPRPRPRPPSIPRP, the “shrunken log2 fold change” value was -0.0216.

On to RRIRVRPPRLPRPRPRPGAWPRP, for which the “shrunken log2 fold change” value came out at 0.323.

Turning to RRIRVRPPRLPRPRPRPNYFPRP, the “shrunken log2 fold change” value was -0.303.

Consider RRIRMRPPRLPRPRPRPQHNPRP, for which the “shrunken log2 fold change” value was -0.605.

As for RRIRFRPPRLPRPRPRPGDMPRP, the “shrunken log2 fold change” value is -0.311.

As to RRIRERPPRLPRPRPRPLMGPRP, the “shrunken log2 fold change” value was 0.247.

On to RRIRDRPPRLPRPRPRPKWLPRP, for which the “shrunken log2 fold change” value amounted to 0.223.

On to RRIRIRPPRLPRPRPRPHWCPRP, for which the “shrunken log2 fold change” value amounted to 0.164.

For the sequence RRIRARPPRLPRPRPRPPSAPRP, the “shrunken log2 fold change” value was 0.827.

For RRIRARPPRLPRPRPRPMINPRP, the “shrunken log2 fold change” value is -0.0176.

RRIRFRPPRLPRPRPRPALKPRP: the “shrunken log2 fold change” value is -0.0754.

Regarding RRIRYRPPRLPRPRPRPTGDPRP, the “shrunken log2 fold change” value was 0.00498.

For RRIRLRPPRLPRPRPRPATRPRP, the “shrunken log2 fold change” value was determined as 0.145.

As to RRIRDRPPRLPRPRPRPWIGPRP, the “shrunken log2 fold change” value stood at 0.0362.

For the sequence RRIRSRPPRLPRPRPRPNYRPRP, the “shrunken log2 fold change” value is -0.366.

In the case of RRIRVRPPRLPRPRPRPGLTPRP, the “shrunken log2 fold change” value is -0.011.

Consider RRIRKRPPRLPRPRPRPKQWPRP, for which the “shrunken log2 fold change” value is 0.216.

For RRIRGRPPRLPRPRPRPNGLPRP, the “shrunken log2 fold change” value was determined as 0.377.

Take RRIRDRPPRLPRPRPRPHFSPRP: the “shrunken log2 fold change” value was -0.0977.

As to RRIRVRPPRLPRPRPRPLGHPRP, the “shrunken log2 fold change” value worked out at 0.0376.

Turning to RRIRDRPPRLPRPRPRPSKPPRP, the “shrunken log2 fold change” value is -0.0858.

In the case of RRIRQRPPRLPRPRPRPKSLPRP, the “shrunken log2 fold change” value was -0.0933.

Take RRIRNRPPRLPRPRPRPIWQPRP: the “shrunken log2 fold change” value stood at 0.0123.

On to RRIRTRPPRLPRPRPRPILKPRP, for which the “shrunken log2 fold change” value was -0.348.

RRIRYRPPRLPRPRPRPFRNPRP: the “shrunken log2 fold change” value was -0.462.

For the sequence RRIRIRPPRLPRPRPRPPMFPRP, the “shrunken log2 fold change” value is -0.181.

With RRIRERPPRLPRPRPRPHNIPRP, the “shrunken log2 fold change” value was -0.274.

Take RRIRMRPPRLPRPRPRPKVIPRP: the “shrunken log2 fold change” value was -0.259.

For RRIRKRPPRLPRPRPRPLCCPRP, the “shrunken log2 fold change” value was 0.104.

In the case of RRIRSRPPRLPRPRPRPQQYPRP, the “shrunken log2 fold change” value is -0.525.

As for RRIRIRPPRLPRPRPRPCIAPRP, the “shrunken log2 fold change” value is -0.0579.

For RRIRYRPPRLPRPRPRPVGNPRP, the “shrunken log2 fold change” value is -0.0681.

For RRIRDRPPRLPRPRPRPQDVPRP, the “shrunken log2 fold change” value is -0.254.

RRIRFRPPRLPRPRPRPRLCPRP: the “shrunken log2 fold change” value is 0.276.

In the case of RRIRDRPPRLPRPRPRPVGAPRP, the “shrunken log2 fold change” value turned out to be 0.825.

Regarding RRIRFRPPRLPRPRPRPEFYPRP, the “shrunken log2 fold change” value was determined as 0.0551.

For RRIRARPPRLPRPRPRPQTTPRP, the “shrunken log2 fold change” value was 0.768.

Regarding RRIRERPPRLPRPRPRPRIFPRP, the “shrunken log2 fold change” value was -0.0907.

RRIRARPPRLPRPRPRPTGFPRP: the “shrunken log2 fold change” value was 0.105.

In the case of RRIRWRPPRLPRPRPRPLMVPRP, the “shrunken log2 fold change” value was -0.0319.

With RRIRVRPPRLPRPRPRPIMRPRP, the “shrunken log2 fold change” value turned out to be 0.0562.

With RRIRTRPPRLPRPRPRPLCGPRP, the “shrunken log2 fold change” value is 0.0512.

RRIRERPPRLPRPRPRPPIYPRP: the “shrunken log2 fold change” value was -0.633.

In the case of RRIRKRPPRLPRPRPRPTYLPRP, the “shrunken log2 fold change” value was -0.201.

With RRIRCRPPRLPRPRPRPWVVPRP, the “shrunken log2 fold change” value is -0.168.

As for RRIRTRPPRLPRPRPRPFCTPRP, the “shrunken log2 fold change” value is -0.316.

Turning to RRIRNRPPRLPRPRPRPHNHPRP, the “shrunken log2 fold change” value is -0.739.

RRIRTRPPRLPRPRPRPCYLPRP: the “shrunken log2 fold change” value is -0.468.

For RRIRGRPPRLPRPRPRPAYCPRP, the “shrunken log2 fold change” value amounted to 0.114.

With RRIRFRPPRLPRPRPRPDSHPRP, the “shrunken log2 fold change” value is -0.495.

Regarding RRIRLRPPRLPRPRPRPMSWPRP, the “shrunken log2 fold change” value turned out to be 0.0708.

Regarding RRIRCRPPRLPRPRPRPIEQPRP, the “shrunken log2 fold change” value is 0.0493.

Take RRIRIRPPRLPRPRPRPCSTPRP: the “shrunken log2 fold change” value is -0.484.

Take RRIRLRPPRLPRPRPRPHNDPRP: the “shrunken log2 fold change” value is -0.452.

For the sequence RRIRTRPPRLPRPRPRPYCQPRP, the “shrunken log2 fold change” value is -0.804.

As to RRIRGRPPRLPRPRPRPGTRPRP, the “shrunken log2 fold change” value turned out to be 0.703.

Regarding RRIRCRPPRLPRPRPRPPECPRP, the “shrunken log2 fold change” value turned out to be 0.131.

For RRIRARPPRLPRPRPRPYQEPRP, the “shrunken log2 fold change” value turned out to be 0.0175.

Turning to RRIRVRPPRLPRPRPRPRVRPRP, the “shrunken log2 fold change” value came out at 0.363.

Regarding RRIRRRPPRLPRPRPRPKMSPRP, the “shrunken log2 fold change” value was 0.274.

As to RRIRIRPPRLPRPRPRPMYKPRP, the “shrunken log2 fold change” value is -1.13.

For the sequence RRIRFRPPRLPRPRPRPIQPPRP, the “shrunken log2 fold change” value is 0.137.

On to RRIRVRPPRLPRPRPRPKGDPRP, for which the “shrunken log2 fold change” value was 0.275.

Consider RRIRHRPPRLPRPRPRPFDTPRP, for which the “shrunken log2 fold change” value was -0.178.

Take RRIRVRPPRLPRPRPRPMPTPRP: the “shrunken log2 fold change” value worked out at 0.282.

For RRIRGRPPRLPRPRPRPHGDPRP, the “shrunken log2 fold change” value is 1.11.

Regarding RRIRHRPPRLPRPRPRPRPHPRP, the “shrunken log2 fold change” value was 0.365.

RRIRCRPPRLPRPRPRPIKDPRP: the “shrunken log2 fold change” value was -0.533.

RRIRMRPPRLPRPRPRPPDAPRP: the “shrunken log2 fold change” value stood at 1.53.

As to RRIRDRPPRLPRPRPRPSDAPRP, the “shrunken log2 fold change” value is -0.218.

Turning to RRIRDRPPRLPRPRPRPYGAPRP, the “shrunken log2 fold change” value was 0.00308.

Consider RRIRARPPRLPRPRPRPPQGPRP, for which the “shrunken log2 fold change” value was 0.689.

For RRIRCRPPRLPRPRPRPCHRPRP, the “shrunken log2 fold change” value was -0.371.

RRIRYRPPRLPRPRPRPPGHPRP: the “shrunken log2 fold change” value is -0.337.

With RRIRRRPPRLPRPRPRPLQCPRP, the “shrunken log2 fold change” value was determined as 0.18.

As to RRIRLRPPRLPRPRPRPDVHPRP, the “shrunken log2 fold change” value was -0.186.

Turning to RRIRYRPPRLPRPRPRPCRIPRP, the “shrunken log2 fold change” value is -0.0823.

RRIRGRPPRLPRPRPRPQVPPRP: the “shrunken log2 fold change” value is -0.0856.

With RRIRNRPPRLPRPRPRPRFWPRP, the “shrunken log2 fold change” value came to 0.395.

Consider RRIRCRPPRLPRPRPRPSNWPRP, for which the “shrunken log2 fold change” value was 0.0114.

For RRIRHRPPRLPRPRPRPIKFPRP, the “shrunken log2 fold change” value is -0.0972.

With RRIRSRPPRLPRPRPRPWWTPRP, the “shrunken log2 fold change” value was -0.127.

Regarding RRIRTRPPRLPRPRPRPHCIPRP, the “shrunken log2 fold change” value was -0.489.

On to RRIRFRPPRLPRPRPRPGTIPRP, for which the “shrunken log2 fold change” value is -0.173.

On to RRIRDRPPRLPRPRPRPDTHPRP, for which the “shrunken log2 fold change” value stood at 0.17.

For RRIRLRPPRLPRPRPRPWIRPRP, the “shrunken log2 fold change” value was -0.0231.

On to RRIRCRPPRLPRPRPRPERHPRP, for which the “shrunken log2 fold change” value was -0.0311.

For RRIRERPPRLPRPRPRPVNTPRP, the “shrunken log2 fold change” value was -0.34.

Consider RRIRQRPPRLPRPRPRPSWKPRP, for which the “shrunken log2 fold change” value was -0.244.

Take RRIRIRPPRLPRPRPRPDTIPRP: the “shrunken log2 fold change” value was -0.0883.

For RRIRFRPPRLPRPRPRPPQRPRP, the “shrunken log2 fold change” value is 0.617.

Consider RRIRRRPPRLPRPRPRPNKLPRP, for which the “shrunken log2 fold change” value was -0.138.

Consider RRIRQRPPRLPRPRPRPITQPRP, for which the “shrunken log2 fold change” value was -0.132.

As to RRIRHRPPRLPRPRPRPEPGPRP, the “shrunken log2 fold change” value is -0.044.

For RRIRHRPPRLPRPRPRPIHYPRP, the “shrunken log2 fold change” value was -0.0138.

For RRIRSRPPRLPRPRPRPEQRPRP, the “shrunken log2 fold change” value is -0.011.

For the sequence RRIRLRPPRLPRPRPRPQQEPRP, the “shrunken log2 fold change” value was 0.0119.

Take RRIRKRPPRLPRPRPRPGWYPRP: the “shrunken log2 fold change” value is -0.0717.

Turning to RRIRTRPPRLPRPRPRPFDIPRP, the “shrunken log2 fold change” value was -0.018.

For the sequence RRIRWRPPRLPRPRPRPIATPRP, the “shrunken log2 fold change” value turned out to be 0.435.

Turning to RRIRLRPPRLPRPRPRPPMCPRP, the “shrunken log2 fold change” value is 0.202.

Consider RRIRNRPPRLPRPRPRPSIAPRP, for which the “shrunken log2 fold change” value is -0.0838.

With RRIRTRPPRLPRPRPRPMMEPRP, the “shrunken log2 fold change” value is -0.202.

Consider RRIRMRPPRLPRPRPRPVGEPRP, for which the “shrunken log2 fold change” value came to 0.141.

Regarding RRIRQRPPRLPRPRPRPGLTPRP, the “shrunken log2 fold change” value is -0.483.

Take RRIRCRPPRLPRPRPRPHPYPRP: the “shrunken log2 fold change” value is -0.296.

Take RRIRARPPRLPRPRPRPMHLPRP: the “shrunken log2 fold change” value is -0.00822.

With RRIRNRPPRLPRPRPRPPWRPRP, the “shrunken log2 fold change” value turned out to be 0.437.

Turning to RRIRERPPRLPRPRPRPINVPRP, the “shrunken log2 fold change” value turned out to be 0.017.

Take RRIRYRPPRLPRPRPRPRVHPRP: the “shrunken log2 fold change” value is -0.0416.

Take RRIRHRPPRLPRPRPRPLVVPRP: the “shrunken log2 fold change” value was -0.0489.

Turning to RRIRNRPPRLPRPRPRPETVPRP, the “shrunken log2 fold change” value was -0.00716.

For RRIRSRPPRLPRPRPRPWSDPRP, the “shrunken log2 fold change” value was -0.164.

As for RRIRGRPPRLPRPRPRPVHPPRP, the “shrunken log2 fold change” value stood at 2.04.

Take RRIRVRPPRLPRPRPRPAWIPRP: the “shrunken log2 fold change” value is 0.0483.

Regarding RRIRFRPPRLPRPRPRPASFPRP, the “shrunken log2 fold change” value is 0.279.

RRIRTRPPRLPRPRPRPIVIPRP: the “shrunken log2 fold change” value is -0.054.

On to RRIRMRPPRLPRPRPRPPTKPRP, for which the “shrunken log2 fold change” value turned out to be 0.508.

Regarding RRIRNRPPRLPRPRPRPWMRPRP, the “shrunken log2 fold change” value is 0.311.

Turning to RRIRWRPPRLPRPRPRPDWNPRP, the “shrunken log2 fold change” value was 0.0393.

On to RRIRRRPPRLPRPRPRPHSWPRP, for which the “shrunken log2 fold change” value came out at 0.333.

With RRIRVRPPRLPRPRPRPFEVPRP, the “shrunken log2 fold change” value is -0.164.

As for RRIRQRPPRLPRPRPRPYFVPRP, the “shrunken log2 fold change” value is -0.472.

Turning to RRIRGRPPRLPRPRPRPYCWPRP, the “shrunken log2 fold change” value came out at 0.0345.

As for RRIRSRPPRLPRPRPRPTLFPRP, the “shrunken log2 fold change” value was 0.206.
